Data: paper PMC4931634

How the values were obtained:
[1] = molecular target: HIV-1 subtype C 1086.C gp120 (reference standard lot) (HIV-1 group M subtype C, strain 1086.C); assay: non-reduced SDS-PAGE; purified gp120 reference material; the dimer band disappeared completely upon reduced SDS-PAGE
[2] = molecular target: HIV-1 subtype C TV1.C gp120 (reference standard lot) (HIV-1 group M subtype C, strain TV1.C); assay: as above

| Substance | stoichiometry N [1] | stoichiometry N [2] |
| --- | --- | --- |
| HIV-1 subtype C 1086.C gp120 (reference standard lot) (natural protein) | 2 |  |
| HIV-1 subtype C TV1.C gp120 (reference standard lot) (natural protein) |  | 2 |
